According to paper PMC4470286 (Genes & Development, 2015):
Each block holds one binder with its values, some of them ahead of it.

B1: N-Fob1-GST, purified from yeast (domain or fragment, S. cerevisiae, UniProt O13329 1-429, looked up)
chain: MTKPRYNDVLFDDDDSVPSESVTRKSQRRKATSPGESRESSKDRLLILPSMGESYTEYVDSYLNLELLERGERETPIFLESLTRQLTQKIYELIKTKSLTADTLQQISDKYDGVVAENKLLFLQRQYYVDDEGNVRDGRNNDKIYCEPKHVYDMVMATHLMNKHLRGKTLHSFLFSHFANISHAIIDWVQQFCSKCNKKGKIKPLKEYKRPDMYDKLLPMERIHIEVFEPFNGEAIEGKYSYVLLCRDYRSSFMWLLPLKSTKFKHLIPVVSSLFLTFARVPIFVTSSTLDKDDLYDICEEIASKYGLRIGLGLKSSARFHTGGILCIQYALNSYKKECLADWGKCLRYGPYRFNRRRNKRTKRKPVQVLLSEVPGHNAKFETKRERVIENTYSRNMFKMAGGKGLIYLEDVNTFALANEADNSCNNNG

Legend:
[1] = target: T1, Fob1 (wild type) without GST, purified from yeast (S. cerevisiae, UniProt O13329 1-566); assay: ELISA
T1 sequence (looked up): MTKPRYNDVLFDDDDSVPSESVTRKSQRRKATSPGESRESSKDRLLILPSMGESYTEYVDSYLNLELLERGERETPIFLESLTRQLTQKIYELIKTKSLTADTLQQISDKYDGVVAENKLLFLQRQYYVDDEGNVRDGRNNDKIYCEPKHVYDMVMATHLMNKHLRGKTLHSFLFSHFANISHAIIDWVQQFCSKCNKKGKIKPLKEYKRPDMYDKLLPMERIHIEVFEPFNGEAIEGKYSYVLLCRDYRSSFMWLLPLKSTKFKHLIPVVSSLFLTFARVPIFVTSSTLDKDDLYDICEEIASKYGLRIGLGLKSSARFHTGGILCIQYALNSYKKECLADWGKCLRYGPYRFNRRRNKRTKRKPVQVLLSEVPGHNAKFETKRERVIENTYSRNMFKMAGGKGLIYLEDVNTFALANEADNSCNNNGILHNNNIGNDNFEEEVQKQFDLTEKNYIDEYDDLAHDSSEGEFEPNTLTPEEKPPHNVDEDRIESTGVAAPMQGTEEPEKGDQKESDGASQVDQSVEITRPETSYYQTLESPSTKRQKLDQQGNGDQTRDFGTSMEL

[2] = target: B1; assay: pull-down
crystal structure = target: the molecule itself; assay: crystal structure

Binder: B1
binding result [1]: binds

binding result [2]: binds
B2: C-terminal Fob1 with a kinase tag (from a pMAL fusion) (domain or fragment, S. cerevisiae, UniProt O13329 430-566, looked up)
chain: ILHNNNIGNDNFEEEVQKQFDLTEKNYIDEYDDLAHDSSEGEFEPNTLTPEEKPPHNVDEDRIESTGVAAPMQGTEEPEKGDQKESDGASQVDQSVEITRPETSYYQTLESPSTKRQKLDQQGNGDQTRDFGTSMEL
modifications: 32P-labeled

B3: Reb1 protein of Schizosaccharomyces pombe (natural protein, UniProt Q9P6H9 1-504, looked up)
chain: MDTSVLNPELQIHGFIGVDSLQSSRKRKNDFDDFPLNKGLKTNNNDYSGSIEPKFSPALSIKEDGKNDRNFEALMSLQAQDSNLSEQNTSIHLDALASSSIALGNDNVDSSAFLSKVNKGVNAMRNSTSNQTNDSILISPSEITNMDPFLKGSARWTAEHWDYLERRMQNFCQTYSLDHTQVADSLHEKRLHGPLSSLVKLLVQEMPSFTRRTILRHLRALYNIPGYEKYSRKNSSGRGDFGVQETAIISQEVHNFIMDQGWSEYQFCNQIWAGKCPKTIRMFYSNLYKKLSHRDAKSIYHHVRRAYNPFEDRCVWSKEEDEELRKNVVEHGKCWTKIGRKMARMPNDCRDRWRDVVRFGDKLKRNAWSLEEETQLLQIVAELRNREDLSSDINWTLVAQMLGTRTRLQCRYKFQQLTKAASKFELQENVWLLERIYDSLLNNGGKIHWENIVKEANGRWTRDQMLFQFINLKKMIPSYDNLPLLEATKSAIDDFKVVLSGFSN
stoichiometry N (crystal structure): 2
